According to PMC4229036:

Molecular target: Donor-labeled human factor Xa (fluorescein-EGR-chloromethylketone at the active site) (human)
Assay: fluorescence polarisation

Recombinant human factor Va (FVa2) with a N2181Q mutation (natural protein)
fluorescence anisotropy of active-site fluorescein (200 µM C6PS): 0.21
fluorescence anisotropy of active-site fluorescein (400 µM C6PS): 0.22
fluorescence anisotropy of active-site fluorescein (700 µM C6PS): 0.22
fluorescence anisotropy of active-site fluorescein (on membranes): 0.22
